Article PMC9082959, “Mechanism of Assembly of the Non-Covalent Spectrin Tetramerization Domain from Intrinsically Disordered Partners” (Journal of molecular biology, 2013)
Numbering of substitutions follows the chain as printed.

How the values were obtained:
Test in all cases: ITC; β16β17 at 25–50 μM in the cell titrated with 15–20 injections to 2–2.5 eq of α0α1; one-site binding model; PBS (50 mM sodium phosphate, 150 mM NaCl, pH 7.04), 25 °C; mutants only against the wild-type partner
Settings in all cases: both partners purified
β16β17 R13A = biological target: T1, β16β17 R13A (human, UniProt P11277 1898-2083, R2016A)
T1 construct: erythrocyte β-spectrin, human, residues 1898-2083 (β16β17); mutant of m2; also called R2016A; source: E. coli C41(DE3), purified (Ni2+ agarose, thrombin cleavage, gel filtration)
T1 sequence (looked up): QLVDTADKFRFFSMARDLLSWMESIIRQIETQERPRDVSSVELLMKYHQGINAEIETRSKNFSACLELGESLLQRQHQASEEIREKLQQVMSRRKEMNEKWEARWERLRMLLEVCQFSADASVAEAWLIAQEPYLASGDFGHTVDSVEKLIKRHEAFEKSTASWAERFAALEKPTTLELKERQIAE

β16β17 D39G = biological target: T2, β16β17 D39G (human, UniProt P11277 1898-2083, D2042G)
T2 construct: erythrocyte β-spectrin, human, residues 1898-2083 (β16β17); mutant of m2; also called D2042G; source: E. coli C41(DE3), purified (Ni2+ agarose, thrombin cleavage, gel filtration)
T2 sequence (looked up): T1 sequence (looked up) with A119R, D145G

β16β17 K43A = biological target: T3, β16β17 K43A (human, UniProt P11277 1898-2083, K2046A)
T3 construct: erythrocyte β-spectrin, human, residues 1898-2083 (β16β17); mutant of m2; also called K2046A; source: E. coli C41(DE3), purified (Ni2+ agarose, thrombin cleavage, gel filtration)
T3 sequence (looked up): T1 sequence (looked up) with A119R, K149A

β16β17 K43G = biological target: T4, β16β17 K43G (human, UniProt P11277 1898-2083, K2046G)
T4 construct: erythrocyte β-spectrin, human, residues 1898-2083 (β16β17); mutant of m2; also called K2046G; source: E. coli C41(DE3), purified (Ni2+ agarose, thrombin cleavage, gel filtration)
T4 sequence (looked up): T1 sequence (looked up) with A119R, K149G

β16β17 K53A = biological target: T5, β16β17 K53A (human, UniProt P11277 1898-2083, K2056A)
T5 construct: erythrocyte β-spectrin, human, residues 1898-2083 (β16β17); mutant of m2; also called K2056A; source: E. coli C41(DE3), purified (Ni2+ agarose, thrombin cleavage, gel filtration)
T5 sequence (looked up): T1 sequence (looked up) with A119R, K159A

β16β17 K67G = biological target: T6, β16β17 K67G (human, UniProt P11277 1898-2083, K2070G)
T6 construct: erythrocyte β-spectrin, human, residues 1898-2083 (β16β17); mutant of m2; also called K2070G; source: E. coli C41(DE3), purified (Ni2+ agarose, thrombin cleavage, gel filtration)
T6 sequence (looked up): T1 sequence (looked up) with A119R, K173G

Ka (β16β17 R13A): 980000 M⁻¹ | Ka (β16β17 D39G): 280000 M⁻¹ | Ka (β16β17 K43A): 1.8e+06 M⁻¹ | Ka (β16β17 K43G): 328000 M⁻¹ | Ka (β16β17 K53A): 1.5e+06 M⁻¹ | Ka (β16β17 K67G): 140000 M⁻¹
B1: α0α1 (erythrocyte α-spectrin residues 2–163), wild type (domain or fragment, human, UniProt P02549 2-163, looked up)
chain: EQFPKETVVESSGPKVLETAEEIQERRQEVLTRYQSFKERVAERGQKLEDSYHLQVFKRDADDLGKWIMEKVNILTDKSYEDPTNIQGKYQKHQSLEAEVQTKSRLMSELEKTREERFTMGHSAHEETKAHIEELRHLWDLLLELTLEKGDQLLRALKFQQY
notes: synthetic gene (GenScript) in a modified pRSETA plasmid; also called α1α0; source: E. coli C41(DE3), purified (Ni2+ agarose, thrombin cleavage, gel filtration)
